From patent US20070197446A1, “MHC binding peptides and their uses” (ProImmune Limited, priority 2006, published 2007)

Target: HLA-B*0801
Assay: not given

Binder	ELISA (Absorption-Pass/Fail Control)
ILEKKHNGK (modifications not checked) [… (SEQ ID NO: 28)]	0.95 absorption
VSLVKSDQI (modifications not checked) [… (SEQ ID NO: 31)]	0.36 absorption
NVTVTHAQD (modifications not checked) [… (SEQ ID NO: 27)]	0.08 absorption
TIMEKNVTV (modifications not checked) [… (SEQ ID NO: 18)]	0.8 absorption
DTIMEKNVT (modifications not checked) [… (SEQ ID NO: 32)]	0.08 absorption
WLLGNPMCD (modifications not checked) [… (SEQ ID NO: 38)]	0.03 absorption
VAGWLLGNP (modifications not checked) [… (SEQ ID NO: 37)]	0.04 absorption
GNPMCDEFI (modifications not checked) [… (SEQ ID NO: 39)]	0.04 absorption
PLILRDCSV (modifications not checked) [… (SEQ ID NO: 36)]	0.65 absorption
DILEKKHNG (modifications not checked) [… (SEQ ID NO: 34)]	0.53 absorption
LILRDCSVA (modifications not checked) [… (SEQ ID NO: 23)]	0.07 absorption
KPLILRDCS (modifications not checked) [… (SEQ ID NO: 35)]	0.1 absorption
VTHAQDILE (modifications not checked) [… (SEQ ID NO: 33)]	0.31 absorption

Target: HLA-A*0301
Assay: not given

Binder	ELISA (Absorption-Pass/Fail Control)
ILEKKHNGK (modifications not checked) [… (SEQ ID NO: 28)]	-0.01 absorption
NVTVTHAQD (modifications not checked) [… (SEQ ID NO: 27)]	-0.04 absorption
KLCDLDGVK (modifications not checked) [… (SEQ ID NO: 22)]	1.16 absorption
KSDQICIGY (modifications not checked) [… (SEQ ID NO: 9)]	0.05 absorption

Target: HLA-A*0101
Assay: not given

Binder	ELISA (Absorption-Pass/Fail Control)
FINVPEWSY (modifications not checked) [… (SEQ ID NO: 10)]	0.16 absorption
KSDQICIGY (modifications not checked) [… (SEQ ID NO: 9)]	0.47 absorption

Target: HLA-B*3501
Assay: MHC-peptide assembly over 24 h, ELISA with conformational antibody; reading minus pass/fail control

Binder	ELISA (Absorption-Pass/Fail Control)
HPVGEADYFEY (modifications not checked) [… (SEQ ID NO: 8)]	0.55 absorption

Target: HLA-B*0702
Assay: not given

Binder	ELISA (Absorption-Pass/Fail Control)
TIMEKNVTV (modifications not checked) [… (SEQ ID NO: 18)]	0 absorption
LVKSDQICI (modifications not checked) [… (SEQ ID NO: 29)]	-0.06 absorption
ILRDCSVAG (modifications not checked) [… (SEQ ID NO: 30)]	0.03 absorption

Target: HLA-A*0201
Assay: not given

Binder	ELISA (Absorption-Pass/Fail Control)
TIMEKNVTV (modifications not checked) [… (SEQ ID NO: 18)]	0.99 absorption
VLLFAIVSL (modifications not checked) [… (SEQ ID NO: 11)]	0.47 absorption
AIVSLVKSD (modifications not checked) [… (SEQ ID NO: 14)]	0.43 absorption
IVSLVKSDQ (modifications not checked) [… (SEQ ID NO: 15)]	0.04 absorption
MEKNVTVTH (modifications not checked) [… (SEQ ID NO: 20)]	-0.02 absorption
AQDILEKKH (modifications not checked) [… (SEQ ID NO: 21)]	0.15 absorption
HANNSTEQV (modifications not checked) [… (SEQ ID NO: 17)]	0.43 absorption
KLCDLDGVK (modifications not checked) [… (SEQ ID NO: 22)]	0.2 absorption
SLVKSDQIC (modifications not checked) [… (SEQ ID NO: 16)]	0.09 absorption
LLFAIVSLV (modifications not checked) [… (SEQ ID NO: 12)]	1.06 absorption
FAIVSLVKS (modifications not checked) [… (SEQ ID NO: 13)]	0.07 absorption
LILRDCSVA (modifications not checked) [… (SEQ ID NO: 23)]	0.57 absorption
NVPEWSYIV (modifications not checked) [… (SEQ ID NO: 25)]	1.03 absorption
PMCDEFINV (modifications not checked) [… (SEQ ID NO: 24)]	0.98 absorption
IMEKNVTVT (modifications not checked) [… (SEQ ID NO: 19)]	0.02 absorption

Target: HLA-B*3501
Assay: not given

Binder	ELISA (Absorption-Pass/Fail Control)
FINVPEWSY (modifications not checked) [… (SEQ ID NO: 10)]	0.57 absorption
AGWLLGNPM (modifications not checked) [… (SEQ ID NO: 42)]	-0.06 absorption
LVKSDQICI (modifications not checked) [… (SEQ ID NO: 29)]	0.04 absorption
LFAIVSLVK (modifications not checked) [… (SEQ ID NO: 40)]	0.1 absorption
HANNSTEQV (modifications not checked) [… (SEQ ID NO: 17)]	0.43 absorption
SLVKSDQIC (modifications not checked) [… (SEQ ID NO: 16)]	-0.03 absorption
LGNPMCDEF (modifications not checked) [… (SEQ ID NO: 43)]	0.35 absorption
